Here are results for three substances from patent US8318488.

Holding throughout (assay): cell-based or functional assay
Assay [1] has as its target endothelin receptor B (ETB) (UniProt P48302).
Assay [2] deals with endothelin receptor A (ETA) (UniProt Q61614).
In assay [3] the target is calcium/calmodulin-dependent protein phosphatase calcineurin.

endothelin receptor A (ETA), sequence (Q61614 21-427 limits assumed): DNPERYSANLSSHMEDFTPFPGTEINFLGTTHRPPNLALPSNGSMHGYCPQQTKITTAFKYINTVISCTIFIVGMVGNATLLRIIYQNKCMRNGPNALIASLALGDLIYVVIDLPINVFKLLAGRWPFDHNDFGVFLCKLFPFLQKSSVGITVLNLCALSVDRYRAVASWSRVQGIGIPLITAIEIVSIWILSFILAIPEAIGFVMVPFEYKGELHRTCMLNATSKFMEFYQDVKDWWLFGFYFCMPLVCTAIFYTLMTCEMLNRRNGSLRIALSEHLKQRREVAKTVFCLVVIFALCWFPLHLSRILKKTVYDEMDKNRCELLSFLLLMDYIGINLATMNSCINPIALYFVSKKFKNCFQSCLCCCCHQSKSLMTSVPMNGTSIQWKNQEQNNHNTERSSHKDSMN
endothelin receptor B (ETB), sequence (P48302 27-442 limits assumed): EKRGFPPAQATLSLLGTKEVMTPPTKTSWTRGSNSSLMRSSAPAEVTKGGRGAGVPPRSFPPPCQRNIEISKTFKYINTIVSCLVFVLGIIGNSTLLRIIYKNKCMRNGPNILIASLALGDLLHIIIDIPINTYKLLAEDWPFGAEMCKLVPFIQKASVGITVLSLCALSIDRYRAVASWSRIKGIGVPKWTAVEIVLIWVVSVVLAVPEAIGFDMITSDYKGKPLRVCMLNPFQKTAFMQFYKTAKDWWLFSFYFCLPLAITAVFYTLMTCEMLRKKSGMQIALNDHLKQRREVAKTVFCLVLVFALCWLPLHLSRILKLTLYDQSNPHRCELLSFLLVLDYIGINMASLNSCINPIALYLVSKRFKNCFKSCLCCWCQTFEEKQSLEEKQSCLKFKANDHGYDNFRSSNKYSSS

For the substance BQ-788 (peptide), in assay [1], the ANF expression (RT-PCR) after ET-1 stimulation, relative to ET-1 without compound (100%); BQ788 1 µM worked out at 70% and the BNP expression (RT-PCR) after ET-1 stimulation, relative to ET-1 without compound (100%); BQ788 1 µM was determined as 70%.

In assay [2], BQ-123 (peptide) gave an ANF expression (RT-PCR) after ET-1 stimulation, relative to ET-1 without compound (100%); BQ123 1 µM of 50% and a BNP expression (RT-PCR) after ET-1 stimulation, relative to ET-1 without compound (100%); BQ123 1 µM of 60%.

Regarding Cyclosporin A (peptide), in assay [3], the ANF expression (RT-PCR) after ET-1 stimulation, relative to ET-1 without compound (100%); cyclosporin A 1 µg/ml was determined as 70%; the ANF expression (RT-PCR) after PE stimulation, relative to PE without compound (100%); cyclosporin A 1 µg/ml amounted to 70%; the BNP expression (RT-PCR) after ET-1 stimulation, relative to ET-1 without compound (100%); cyclosporin A 1 µg/ml was 50%; the BNP expression (RT-PCR) after PE stimulation, relative to PE without compound (100%); cyclosporin A 1 µg/ml was determined as 70%.
